Measured values: the supplement of paper PMC10065799, “High-throughput profiling of sequence recognition by tyrosine kinases and SH2 domains using bacterial peptide display” (eLife, 2023)

What was measured:
[1] = test system: AncSZ; assay: phosphorylation enrichment, bacterial display (enrichment ratio); higher = better substrate or ligand; peptides without Tyr show the background
[2] = target: EPHB1 (UniProt P54762); assay: as above
[3] = target: EPHB2 (UniProt P29323); assay: as above
[4] = target: FGFR1 (UniProt P11362); assay: as above
FGFR1, sequence (P11362 whole entry, looked up): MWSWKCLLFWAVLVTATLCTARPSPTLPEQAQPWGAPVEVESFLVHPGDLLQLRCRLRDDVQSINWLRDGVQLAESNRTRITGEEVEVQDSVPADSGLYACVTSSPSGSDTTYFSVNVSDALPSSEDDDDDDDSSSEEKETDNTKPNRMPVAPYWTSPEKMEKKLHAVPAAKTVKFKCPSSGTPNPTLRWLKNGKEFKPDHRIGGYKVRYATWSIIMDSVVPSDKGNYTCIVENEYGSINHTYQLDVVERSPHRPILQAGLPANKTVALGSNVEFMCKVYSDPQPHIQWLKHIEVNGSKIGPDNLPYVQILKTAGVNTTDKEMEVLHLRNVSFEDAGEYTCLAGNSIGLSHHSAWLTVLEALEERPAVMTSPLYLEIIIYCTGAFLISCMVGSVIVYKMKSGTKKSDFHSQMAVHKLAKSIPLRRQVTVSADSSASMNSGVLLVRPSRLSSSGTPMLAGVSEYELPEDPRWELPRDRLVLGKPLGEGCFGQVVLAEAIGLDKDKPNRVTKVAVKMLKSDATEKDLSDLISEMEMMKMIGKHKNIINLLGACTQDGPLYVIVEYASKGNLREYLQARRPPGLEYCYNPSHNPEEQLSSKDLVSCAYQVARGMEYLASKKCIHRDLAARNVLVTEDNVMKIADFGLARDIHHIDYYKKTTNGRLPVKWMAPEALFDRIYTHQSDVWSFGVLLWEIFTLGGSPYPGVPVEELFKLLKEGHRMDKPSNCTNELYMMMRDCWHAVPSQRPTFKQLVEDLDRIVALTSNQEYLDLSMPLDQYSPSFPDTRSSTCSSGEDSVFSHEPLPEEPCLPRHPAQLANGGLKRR

[5] = target: FGFR3 (UniProt P22607); assay: as above
[6] = test system: Fer (mouse); assay: as above
[7] = target: Fes (UniProt P07332); assay: as above
[8] = target: Fyn (UniProt P06241); assay: as above
Fyn, sequence (P06241 whole entry, looked up): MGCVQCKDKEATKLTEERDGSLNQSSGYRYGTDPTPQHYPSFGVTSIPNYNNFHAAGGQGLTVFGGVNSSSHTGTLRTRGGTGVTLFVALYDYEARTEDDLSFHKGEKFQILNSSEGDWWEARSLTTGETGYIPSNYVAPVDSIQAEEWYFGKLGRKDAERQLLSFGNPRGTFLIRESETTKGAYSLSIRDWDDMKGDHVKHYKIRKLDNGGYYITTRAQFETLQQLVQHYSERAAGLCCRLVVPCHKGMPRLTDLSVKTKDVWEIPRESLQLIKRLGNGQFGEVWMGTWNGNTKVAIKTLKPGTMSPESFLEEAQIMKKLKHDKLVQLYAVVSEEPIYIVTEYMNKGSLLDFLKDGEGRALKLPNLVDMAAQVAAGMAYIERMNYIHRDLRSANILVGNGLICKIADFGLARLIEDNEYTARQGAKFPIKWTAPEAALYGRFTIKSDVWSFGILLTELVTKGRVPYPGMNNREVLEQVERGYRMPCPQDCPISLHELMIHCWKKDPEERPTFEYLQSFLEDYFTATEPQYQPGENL

[9] = target: Hck (UniProt P08631); assay: as above
Hck, sequence (P08631 whole entry, looked up): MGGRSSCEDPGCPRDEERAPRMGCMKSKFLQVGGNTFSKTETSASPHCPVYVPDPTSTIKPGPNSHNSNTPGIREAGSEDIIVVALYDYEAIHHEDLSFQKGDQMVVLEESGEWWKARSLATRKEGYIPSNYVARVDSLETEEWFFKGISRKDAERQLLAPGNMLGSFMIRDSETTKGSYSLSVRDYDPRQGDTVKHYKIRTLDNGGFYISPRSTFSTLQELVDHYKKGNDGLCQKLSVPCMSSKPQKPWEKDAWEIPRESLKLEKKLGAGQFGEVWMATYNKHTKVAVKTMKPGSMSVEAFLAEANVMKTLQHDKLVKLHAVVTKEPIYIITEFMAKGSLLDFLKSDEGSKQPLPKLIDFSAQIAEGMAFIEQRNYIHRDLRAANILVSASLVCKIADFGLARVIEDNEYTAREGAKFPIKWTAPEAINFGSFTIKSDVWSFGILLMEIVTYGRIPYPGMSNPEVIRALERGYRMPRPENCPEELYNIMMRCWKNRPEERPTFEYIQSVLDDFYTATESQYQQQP

[10] = target: Jak2 (UniProt O60674); assay: as above
Jak2, sequence (O60674 whole entry, looked up): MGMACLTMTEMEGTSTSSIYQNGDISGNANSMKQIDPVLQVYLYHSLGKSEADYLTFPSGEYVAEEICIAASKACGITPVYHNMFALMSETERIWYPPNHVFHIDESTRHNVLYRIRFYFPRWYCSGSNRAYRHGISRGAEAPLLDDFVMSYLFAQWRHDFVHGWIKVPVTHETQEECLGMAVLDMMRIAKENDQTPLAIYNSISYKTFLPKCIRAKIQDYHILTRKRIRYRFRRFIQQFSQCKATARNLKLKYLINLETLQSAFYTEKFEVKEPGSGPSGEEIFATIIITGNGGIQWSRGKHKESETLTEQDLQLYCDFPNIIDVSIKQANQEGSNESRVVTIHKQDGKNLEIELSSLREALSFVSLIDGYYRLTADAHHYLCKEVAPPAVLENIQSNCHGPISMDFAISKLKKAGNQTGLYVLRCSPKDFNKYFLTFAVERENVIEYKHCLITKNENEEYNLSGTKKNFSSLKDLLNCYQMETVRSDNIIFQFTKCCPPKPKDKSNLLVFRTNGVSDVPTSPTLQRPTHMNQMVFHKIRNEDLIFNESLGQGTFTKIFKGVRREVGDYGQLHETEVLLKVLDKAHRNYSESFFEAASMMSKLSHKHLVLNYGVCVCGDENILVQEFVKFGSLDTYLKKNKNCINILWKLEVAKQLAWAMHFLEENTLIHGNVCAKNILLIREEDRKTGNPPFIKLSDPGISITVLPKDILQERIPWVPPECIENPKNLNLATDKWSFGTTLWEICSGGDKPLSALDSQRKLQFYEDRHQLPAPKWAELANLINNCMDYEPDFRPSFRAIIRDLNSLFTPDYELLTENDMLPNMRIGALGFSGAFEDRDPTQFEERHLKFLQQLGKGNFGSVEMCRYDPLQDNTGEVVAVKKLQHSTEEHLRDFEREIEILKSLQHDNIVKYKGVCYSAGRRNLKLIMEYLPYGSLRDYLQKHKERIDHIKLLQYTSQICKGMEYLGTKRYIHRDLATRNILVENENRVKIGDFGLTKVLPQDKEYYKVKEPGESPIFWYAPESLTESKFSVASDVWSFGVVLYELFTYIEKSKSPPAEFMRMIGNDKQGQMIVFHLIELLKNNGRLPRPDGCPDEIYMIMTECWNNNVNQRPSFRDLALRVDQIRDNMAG

[11] = target: MERTK (UniProt Q12866); assay: as above
MERTK, sequence (Q12866 whole entry, looked up): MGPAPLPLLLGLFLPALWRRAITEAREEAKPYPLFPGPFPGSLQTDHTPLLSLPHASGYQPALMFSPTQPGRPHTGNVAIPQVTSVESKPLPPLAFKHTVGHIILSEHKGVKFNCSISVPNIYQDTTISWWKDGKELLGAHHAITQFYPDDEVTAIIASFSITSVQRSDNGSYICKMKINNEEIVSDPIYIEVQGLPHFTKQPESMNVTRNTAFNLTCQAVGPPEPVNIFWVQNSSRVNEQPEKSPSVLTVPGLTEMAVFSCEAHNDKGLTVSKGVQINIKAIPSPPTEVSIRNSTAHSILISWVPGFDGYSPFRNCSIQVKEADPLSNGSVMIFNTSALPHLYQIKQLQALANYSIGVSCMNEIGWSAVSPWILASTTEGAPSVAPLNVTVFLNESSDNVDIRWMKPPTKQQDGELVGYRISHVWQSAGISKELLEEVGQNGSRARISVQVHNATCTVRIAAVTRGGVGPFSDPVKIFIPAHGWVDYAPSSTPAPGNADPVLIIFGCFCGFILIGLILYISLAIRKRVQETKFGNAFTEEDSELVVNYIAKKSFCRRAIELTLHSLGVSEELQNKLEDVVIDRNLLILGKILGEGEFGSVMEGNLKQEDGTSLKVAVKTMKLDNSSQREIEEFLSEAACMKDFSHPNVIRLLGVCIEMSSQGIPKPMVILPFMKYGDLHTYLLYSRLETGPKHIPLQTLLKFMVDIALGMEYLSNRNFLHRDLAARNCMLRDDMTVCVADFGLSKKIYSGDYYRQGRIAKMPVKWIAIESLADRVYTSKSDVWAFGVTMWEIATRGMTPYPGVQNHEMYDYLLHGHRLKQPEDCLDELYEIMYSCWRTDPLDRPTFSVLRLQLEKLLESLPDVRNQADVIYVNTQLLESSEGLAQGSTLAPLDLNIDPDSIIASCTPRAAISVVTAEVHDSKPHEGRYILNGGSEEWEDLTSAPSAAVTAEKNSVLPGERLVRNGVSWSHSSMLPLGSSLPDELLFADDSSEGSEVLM

[12] = test system: c-Abl (mouse); assay: as above
[13] = test system: c-Src; assay: as above
[14] = target: Grb2 SH2 (UniProt P62993); assay: SH2 binding enrichment of the phosphorylated peptide, bacterial display (enrichment ratio); higher = better substrate or ligand; peptides without Tyr show the background
[15] = target: SHP2-C SH2; assay: as above
[16] = target: c-Src SH2; assay: as above
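Throughout, for SH2 binding enrichment of the phosphorylated peptide, bacterial display: peptide library displayed on the E. coli surface as eCPX fusions, selected cells deep-sequenced, score is each peptide's frequency after selection divided by its frequency in the input.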
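Throughout, for phosphorylation enrichment, bacterial display: 11-residue human phosphosite peptides and single-mutation variants displayed on the E. coli surface, counted by deep sequencing, each peptide's frequency after selection divided by its frequency in the unselected input library; frequency after pTyr selection over input frequency; kinase dosed for 20-30% of maximal phosphorylation in three min.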

EPHB2, sequence (P29323 whole entry, looked up): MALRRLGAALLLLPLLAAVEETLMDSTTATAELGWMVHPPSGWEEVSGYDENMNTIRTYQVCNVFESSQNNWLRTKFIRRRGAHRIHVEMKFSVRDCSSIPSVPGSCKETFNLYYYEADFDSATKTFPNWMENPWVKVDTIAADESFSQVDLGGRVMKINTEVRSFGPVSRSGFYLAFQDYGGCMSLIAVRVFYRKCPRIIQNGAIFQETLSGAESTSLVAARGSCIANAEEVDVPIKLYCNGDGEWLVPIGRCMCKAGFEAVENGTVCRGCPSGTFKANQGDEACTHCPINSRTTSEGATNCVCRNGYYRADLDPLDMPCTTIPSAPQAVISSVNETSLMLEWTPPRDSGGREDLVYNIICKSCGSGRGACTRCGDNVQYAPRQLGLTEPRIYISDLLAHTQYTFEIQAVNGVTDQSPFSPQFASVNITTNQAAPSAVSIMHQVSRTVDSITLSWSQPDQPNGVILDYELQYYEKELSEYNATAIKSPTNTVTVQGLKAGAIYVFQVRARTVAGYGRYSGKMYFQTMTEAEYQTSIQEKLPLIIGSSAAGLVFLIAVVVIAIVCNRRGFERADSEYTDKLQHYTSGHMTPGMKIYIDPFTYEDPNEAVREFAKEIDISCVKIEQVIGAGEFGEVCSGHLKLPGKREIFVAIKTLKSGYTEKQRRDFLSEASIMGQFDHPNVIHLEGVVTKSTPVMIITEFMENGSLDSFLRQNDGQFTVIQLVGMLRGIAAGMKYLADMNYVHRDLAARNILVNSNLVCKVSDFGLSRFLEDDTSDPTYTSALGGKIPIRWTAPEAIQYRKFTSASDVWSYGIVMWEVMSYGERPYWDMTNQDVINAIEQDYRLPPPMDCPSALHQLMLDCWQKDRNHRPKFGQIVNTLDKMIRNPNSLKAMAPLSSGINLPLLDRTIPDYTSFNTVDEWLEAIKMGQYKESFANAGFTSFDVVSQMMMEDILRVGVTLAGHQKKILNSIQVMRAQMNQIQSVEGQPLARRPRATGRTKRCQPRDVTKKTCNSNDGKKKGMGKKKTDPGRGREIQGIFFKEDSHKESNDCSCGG

Row | SH2 binding enrichment [14] | SH2 binding enrichment [15] | SH2 binding enrichment [16] | Sequence | phosphorylation enrichment [1] | phosphorylation enrichment [2] | phosphorylation enrichment [3] | phosphorylation enrichment [4] | phosphorylation enrichment [5] | phosphorylation enrichment [6] | phosphorylation enrichment [7] | phosphorylation enrichment [8] | phosphorylation enrichment [9] | phosphorylation enrichment [10] | phosphorylation enrichment [11] | phosphorylation enrichment [12] | phosphorylation enrichment [13]
1 | 0.871 | 0.745 | 0.466 | FQKDVYDIPPS [NEDD9_Y177_YF] | 1.01 | 0.681 | 2.01 | 0.384 | 0.559 | 0.502 | 0.681 | 2.59 | 2.69 | 0.629 | 7.04 | 0.662 | 2.62
2 | 1.02 | 0.822 | 1.23 | KILGTYYETGS [PAX2_Y72_R71T] | 0.875 | 0.66 | 0.641 | 1.85 | 1.61 | 0.466 | 0.936 | 0.769 | 0.818 | 0.653 | 1.01 | 0.592 | 1.29
3 | 0.827 | 0.721 | 0.518 | GAVDTYCRHNY [HLA-DRB1_Y107_A102G] | 0.724 | 0.475 | 0.418 | 0.531 | 0.594 | 0.374 | 0.763 | 0.443 | 0.475 | 0.708 | 0.443 | 0.755 | 0.575
4 | 1.01 | 0.633 | 0.51 | ANAFIYDVQLP [L1CAM_Y420_V421D_YF] | 1.1 | 1.69 | 1.3 | 0.639 | 0.627 | 1.19 | 0.938 | 6.97 | 4.65 | 0.849 | 7.43 | 0.715 | 4.96
5 | 0.82 | 1.05 | 0.546 | LYEDRYLLGTS [ASS1_Y87] | 0.982 | 3.01 | 1.23 | 0.702 | 0.95 | 4.27 | 0.981 | 1.79 | 3.73 | 0.894 | 0.786 | 0.79 | 0.837
6 | 1.23 | 1.24 | 0.496 | NLNGKCNKPRA [ANGPTL3_Y417_Y417C] | 0.596 | 0.322 | 0.41 | 0.39 | 0.446 | 0.64 | 0.558 | 0.422 | 0.347 | 0.435 | 0.44 | 0.388 | 0.393
7 | 0.885 | 0.937 | 0.944 | GLDGSYLLRFS [SH2D1A_Y29_D33Y_YF] | 0.839 | 0.44 | 0.518 | 0.385 | 0.546 | 0.424 | 0.965 | 0.435 | 0.408 | 0.843 | 0.414 | 0.644 | 0.465
8 | 0.806 | 0.623 | 0.765 | YADGVYQALEE [DUOX2_Y70] | 1.71 | 2.83 | 2.82 | 0.751 | 0.809 | 1.55 | 1.38 | 4.15 | 3.86 | 1.11 | 1.91 | 2.69 | 4.45
9 | 0.919 | 2.22 | 0.646 | WFPANYVKLLN [ITSN1_Y1132_S1137N] | 1.06 | 3.81 | 1.21 | 0.599 | 0.76 | 0.511 | 1.14 | 0.53 | 0.536 | 1.45 | 0.587 | 0.759 | 0.532
10 | 0.922 | 0.907 | 0.575 | IVLEKYKLLPE [DHFR_Y157_D153V] | 0.843 | 0.53 | 0.638 | 0.596 | 0.752 | 0.45 | 1.07 | 0.453 | 0.458 | 0.809 | 0.386 | 0.676 | 0.346
11 | 1.47 | 1.55 | 1.34 | VLSIDYYFPPQ [AR_Y552_P549S] | 6.35 | 3.13 | 3.2 | 13.3 | 10.8 | 0.605 | 1.09 | 1.03 | 0.881 | 6.81 | 3.5 | 1.24 | 2.17
12 | 0.724 | 0.403 | 0.354 | VGTKRYVAPEV [ACVRL1_Y375_M376V] | 0.61 | 0.309 | 0.444 | 0.332 | 0.464 | 0.474 | 0.658 | 0.451 | 0.351 | 0.477 | 0.422 | 0.544 | 0.458
13 | 0.912 | 0.703 | 0.522 | KLIETYSSKNY [PLP1_Y50_F51S] | 0.649 | 0.684 | 0.759 | 0.584 | 0.619 | 0.44 | 0.838 | 0.429 | 0.536 | 0.653 | 0.539 | 0.591 | 0.543
14 | 0.662 | 0.633 | 0.478 | WRPFGYPHRRR [BCS1L_Y181_R183H] | 0.622 | 0.534 | 0.461 | 0.507 | 0.554 | 0.512 | 0.511 | 0.488 | 0.509 | 0.509 | 0.505 | 0.5 | 0.473
15 | 0.696 | 0.674 | 0.957 | QGGRCYMMIVD [GAA_Y438_R437C] | 2.31 | 1.35 | 1.29 | 0.815 | 1.83 | 0.948 | 2.69 | 0.87 | 0.769 | 2.11 | 0.928 | 1.81 | 1.03
16 | 0.709 | 0.609 | 0.525 | GGSSPYSRRLP [CDK13_Y351] | 0.549 | 0.327 | 0.314 | 0.393 | 0.39 | 0.317 | 0.501 | 0.403 | 0.358 | 0.4 | 0.414 | 0.504 | 0.393

Row | Sequence | SH2 binding enrichment [14] | SH2 binding enrichment [15] | SH2 binding enrichment [16] | phosphorylation enrichment [1] | phosphorylation enrichment [2] | phosphorylation enrichment [3] | phosphorylation enrichment [4] | phosphorylation enrichment [5] | phosphorylation enrichment [6] | phosphorylation enrichment [7] | phosphorylation enrichment [8] | phosphorylation enrichment [9] | phosphorylation enrichment [10] | phosphorylation enrichment [11] | phosphorylation enrichment [12] | phosphorylation enrichment [13]
17 | SIKDKYVMALF [KCNH2_Y611_T613M_YF] | 1.06 | 0.845 | 0.699 | 0.664 | 0.405 | 0.491 | 0.535 | 0.574 | 0.385 | 0.888 | 0.429 | 0.496 | 0.721 | 0.447 | 0.558 | 0.393
